Test results from patent publication US20220227866A1 (VELOSBIO, published 2022).
Positions count from the first letter of the chain named. Several values for one entry are separate records, joined by “and”; a condition that tells them apart may be missing. Equal entries are not always repeated.

B1: Bispecific construct 12 (bispecific antibody, human IgG1, kappa)
heavy: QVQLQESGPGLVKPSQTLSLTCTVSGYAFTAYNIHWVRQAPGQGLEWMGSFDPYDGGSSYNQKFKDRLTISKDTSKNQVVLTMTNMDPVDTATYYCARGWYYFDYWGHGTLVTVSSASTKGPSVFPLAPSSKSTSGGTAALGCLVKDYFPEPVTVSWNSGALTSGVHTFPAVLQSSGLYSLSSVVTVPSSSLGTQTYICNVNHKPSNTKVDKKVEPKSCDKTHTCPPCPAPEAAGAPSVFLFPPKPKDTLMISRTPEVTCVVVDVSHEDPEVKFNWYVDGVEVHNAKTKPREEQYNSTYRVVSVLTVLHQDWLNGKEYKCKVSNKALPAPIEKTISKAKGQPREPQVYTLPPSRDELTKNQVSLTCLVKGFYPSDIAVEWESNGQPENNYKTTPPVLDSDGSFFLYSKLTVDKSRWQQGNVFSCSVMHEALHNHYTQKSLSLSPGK
light: DIVMTQTPLSLPVTPGEPASISCRASKSISKYLAWYQQKPGQAPRLLIYSGSTLQSGIPPRFSGSGYGTDFTLTINNIESEDAAYYFCQQHDESPYTFGEGTKVEIKRTVAAPSVFIFPPSDEQLKSGTASVVCLLNNFYPREAKVQWKVDNALQSGNSQESVTEQDSKDSTYSLSSTLTLSKADYEKHKVYACEVTHQGLSSPVTKSFNRGECGGGGSGGGGSEVQLVESGGGLVQPGGSLRLSCAASGFTFNTYAMNWVRQAPGKCLEWVARIRSKYNNYATYYADSVKGRFTISRDDSKNTLYLQMNSLRAEDTAVYYCVRHGNFGNSYVSYFAYWGQGTTVTVSSGGGGSGGGGSGGGGSGGGGSEIVVTQSPATLSVSPGERATLSCRSSTGAVTAANYANWVQEKPGQAFRGLIGGANKRAPGVPARFSGSLSGDEATLTISSLQSEDFAVYYCALFYSNLWVFGCGTKLEIK
notes: disulfide-stabilized anti-CD3 scFv Ab10; ROR1 arm Ab1; valency 2/2
B2: Bispecific construct 18 (bispecific antibody, human IgG1, kappa)
heavy: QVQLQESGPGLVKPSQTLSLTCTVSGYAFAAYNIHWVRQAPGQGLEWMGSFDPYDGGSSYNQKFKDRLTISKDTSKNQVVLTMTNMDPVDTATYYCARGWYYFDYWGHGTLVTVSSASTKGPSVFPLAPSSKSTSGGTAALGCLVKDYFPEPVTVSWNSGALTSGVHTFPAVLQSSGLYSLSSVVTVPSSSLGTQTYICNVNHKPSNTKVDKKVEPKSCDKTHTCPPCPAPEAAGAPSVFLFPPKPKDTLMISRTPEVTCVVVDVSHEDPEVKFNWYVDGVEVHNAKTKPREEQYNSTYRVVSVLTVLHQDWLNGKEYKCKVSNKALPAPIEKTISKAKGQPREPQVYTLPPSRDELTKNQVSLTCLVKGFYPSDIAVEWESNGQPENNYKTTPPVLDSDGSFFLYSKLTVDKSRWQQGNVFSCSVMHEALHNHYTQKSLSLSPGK
light: B1 light with C268G, C472Q
notes: anti-CD3 scFv Ab10; valency 2/2
B3: Bispecific construct 16 (bispecific antibody, human IgG1, kappa)
heavy 1: not shown
heavy 2: EVQLVESGGGLVQPGGSLRLSCAASGFTFNTYAMNWVRQAPGKGLEWVARIRSKYNNYATYYADSVKGRFTISRDDSKNTLYLQMNSLRAEDTAVYYCVRHGNFGNSYVSYFAYWGQGTTVTVSSGGGGSGGGGSGGGGSGGGGSEIVVTQSPATLSVSPGERATLSCRSSTGAVTAANYANWVQEKPGQAFRGLIGGANKRAPGVPARFSGSLSGDEATLTISSLQSEDFAVYYCALFYSNLWVFGQGTKLEIKEPKSSDKTHTCPPCPAPEAAGAPSVFLFPPKPKDTLMISRTPEVTCVVVDVSHEDPEVKFNWYVDGVEVHNAKTKPREEQYNSTYRVVSVLTVLHQDWLNGKEYKCKVSNKALPAPIEKTISKAKGQPREPQVYTLPPSRDELTKNQVSLSCAVKGFYPSDIAVEWESNGQPENNYKTTPPVLDSDGSFFLVSKLTVDKSRWQQGNVFSCSVMHEALHNHYTQKSLSLSPGK
light: DIVMTQTPLSLPVTPGEPASISCRASKSISKYLAWYQQKPGQAPRLLIYSGSTLQSGIPPRFSGSGYGTDFTLTINNIESEDAAYYFCQQHDESPYTFGEGTKVEIKRTVAAPSVFIFPPSDEQLKSGTASVVCLLNNFYPREAKVQWKVDNALQSGNSQESVTEQDSKDSTYSLSSTLTLSKADYEKHKVYACEVTHQGLSSPVTKSFNRGEC
notes: anti-CD3 scFv Ab10; valency 1/1
B4: Bispecific construct 19 (bispecific antibody, human IgG1, kappa)
heavy 1: not shown
heavy 2: EVQLVESGGGLVQPGGSLRLSCAASGFTFNTYAMNWVRQAPGKGLEWVARIRSKYNNYATYYADSVKGRFTISRDDSKNTLYLQMNSLRAEDTAVYYCVRHGNFGNSYVSYFAYWGQGTTVTVSSGGGGSGGGGSGGGGSGGGGSEIVVTQSPATLSVSPGERATLSCRSSTGAVTAANYANWVQEKPGQAFRGLIGGANKRAPGVPARFSGSLSGDEATLTISSLQSEDFAVYYCALFYSNLWVFGQGTKLEIKGGGGSGGGGSQVQLQESGPGLVKPSQTLSLTCTVSGYAFTAYNIHWVRQAPGQGLEWMGSFDPYDGGSSYNQKFKDRLTISKDTSKNQVVLTMTNMDPVDTATYYCARGWYYFDYWGHGTLVTVSSASTKGPSVFPLAPSSKSTSGGTAALGCLVKDYFPEPVTVSWNSGALTSGVHTFPAVLQSSGLYSLSSVVTVPSSSLGTQTYICNVNHKPSNTKVDKKVEPKSCDKTHTCPPCPAPEAAGAPSVFLFPPKPKDTLMISRTPEVTCVVVDVSHEDPEVKFNWYVDGVEVHNAKTKPREEQYNSTYRVVSVLTVLHQDWLNGKEYKCKVSNKALPAPIEKTISKAKGQPREPQVYTLPPSRDELTKNQVSLSCAVKGFYPSDIAVEWESNGQPENNYKTTPPVLDSDGSFFLVSKLTVDKSRWQQGNVFSCSVMHEALHNHYTQKSLSLSPGK
light: B3 light
notes: CD3 valency 1, ROR1 valency 2
B5: Bispecific construct 17 (bispecific antibody, human IgG1, kappa)
heavy 1: not shown
heavy 2: B3 heavy 2 with G44C, Q248C
light: B3 light
notes: disulfide-stabilized anti-CD3 scFv Ab10; valency 1/1
B6: Bispecific construct 20 (bispecific antibody, human IgG1, kappa)
heavy: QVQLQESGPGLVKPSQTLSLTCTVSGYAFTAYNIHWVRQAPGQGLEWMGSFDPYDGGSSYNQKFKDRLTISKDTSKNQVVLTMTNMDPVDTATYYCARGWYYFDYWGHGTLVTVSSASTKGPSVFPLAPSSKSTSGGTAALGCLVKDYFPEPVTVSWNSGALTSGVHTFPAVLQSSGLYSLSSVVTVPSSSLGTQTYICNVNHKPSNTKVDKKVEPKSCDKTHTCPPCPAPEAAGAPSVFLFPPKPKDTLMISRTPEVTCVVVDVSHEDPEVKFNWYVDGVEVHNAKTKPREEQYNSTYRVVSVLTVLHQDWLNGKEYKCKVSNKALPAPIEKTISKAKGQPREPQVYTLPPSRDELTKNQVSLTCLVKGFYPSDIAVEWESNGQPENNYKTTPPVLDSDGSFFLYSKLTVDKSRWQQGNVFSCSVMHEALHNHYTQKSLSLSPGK
light: EVQLVESGGGLVQPGGSLRLSCAASGFTFNTYAMNWVRQAPGKGLEWVARIRSKYNNYATYYADSVKGRFTISRDDSKNTLYLQMNSLRAEDTAVYYCVRHGNFGNSYVSYFAYWGQGTTVTVSSGGGGSGGGGSGGGGSGGGGSEIVVTQSPATLSVSPGERATLSCRSSTGAVTAANYANWVQEKPGQAFRGLIGGANKRAPGVPARFSGSLSGDEATLTISSLQSEDFAVYYCALFYSNLWVFGQGTKLEIKGGGGSGGGGSDIVMTQTPLSLPVTPGEPASISCRASKSISKYLAWYQQKPGQAPRLLIYSGSTLQSGIPPRFSGSGYGTDFTLTINNIESEDAAYYFCQQHDESPYTFGEGTKVEIKRTVAAPSVFIFPPSDEQLKSGTASVVCLLNNFYPREAKVQWKVDNALQSGNSQESVTEQDSKDSTYSLSSTLTLSKADYEKHKVYACEVTHQGLSSPVTKSFNRGEC
notes: valency 2/2
B7: control 1 (bispecific antibody)
polypeptide, role not told 1: QLVLTQSPSASASLGSSVKLTCTLSSGHKTDTIDWYQQQPGKAPRYLMKLEGSGSYNKGSGVPDRFSGSSSGADWYLTISSLQSEDEADYYCGTDYPGNYLFGGGTQLTVLGGGGSGGGGEVQLVESGGGLVQPGGSLRLSCAASGFTFSTYAMNWVRQAPGKGLEWVGRIRSKYNNYATYYADSVKGRFTISRDDSKNSLYLQMNSLKTEDTAVYYCVRHGNFGNSYVSWFAYWGQGTLVTVSSASTKGEVAACEKEVAALEKEVAALEKEVAALEKGGGDKTHTCPPCPAPEAAGGPSVFLFPPKPKDTLMISRTPEVTCVVVDVSHEDPEVKFNWYVDGVEVHNAKTKPREEQYNSTYRVVSVLTVLHQDWLNGKEYKCKVSNKALPAPIEKTISKAKGQPREPQVYTLPPSREEMTKNQVSLWCLVKGFYPSDIAVEWESNGQPENNYKTTPPVLDSDGSFFLYSKLTVDKSRWQQGNVFSCSVMHEALHNHYTQKSLSLSPGK
polypeptide, role not told 2: QAVVTQEPSLTVSPGGTVTLTCRSSTGAVTTSNYANWVQQKPGQAPRGLIGGTNKRAPWTPARFSGSLLGGKAALTITGAQAEDEADYYCALWYSNLWVFGGGTKLTVLGGGGSGGGGQEQLVESGGGLVQPGGSLRLSCAASGFTFSDYYMSWIRQAPGKGLEWVATIYPSSGKTYYADSAKGRLTISSDNAKDSLYLQMNSLRAEDTAVYYCTRDSYADDAALFDIWGQGTTVTVSSASTKGKVAACKEKVAALKEKVAALKEKVAALKE
polypeptide, role not told 3: not shown

Target: T1, soluble biotinylated human ROR1 extracellular domain (human, UniProt Q01973 30-406, biotinylated with EZ-Link Sulfo-NHS-LC-Biotin at a 1:5 molar ratio)
T1 construct: Acro Biosystems cat; whole entry named; also called b-ROR1; soluble b-ROR1
Assay: ELISA, captured construct, biotinylated ROR1 titrated
Experimental: To measure the binding of bispecific constructs to soluble ROR1, a 96-well Costar-3366 plate was coated with 50 μL/well of 2 μg/mL goat anti-human kappa (Southern Biotech cat. #2060-01) in PBS overnight at 4° C. The plate was rinsed once with PBS-T, blocked with 100 μL/well 5% M-P for 1 h at 25° C., rinsed once with PBS-T, and 2 μg/mL of the bispecific binding molecule was added and incubated for 1 h at 25° C. The plate was washed three times with PBS-T. Biotinylated ROR1 was diluted serially, 3-fold in 5% M-P and was incubated for 1 h at 25° C. (50 μL/well). The plate was washed three times with PBS-T. To detect the binding of b-ROR1, 50 μL/well Neutravidin-HRP (Pierce cat. #31030) diluted 1:5000 in 1% BSA-PBS was added for 1 h at 25° C. The plate was washed three times with PBS-T, then developed with 50 μL/well 1-Step Ultra TMB-ELISA (Thermo Scientific cat. #34028). The reaction was terminated by the addition of 2 N H₂SO₄ and the A450 was determined using a Spectramax plate reader.
The stronger binding observed with bivalent constructs versus monovalent constructs in cell assays and ELISAs in which the antigen is immobilized is consistent with an avidity effect. To determine if this was the case, binding to soluble monomeric ROR1 was assessed by immobilizing the bispecific binding molecules on a microtiter plate coated with goat anti-human kappa antibody and titrating biotinylated RORL. All bispecific binding molecules were active in this format (FIG. 7), and in most cases, there were no notable differences between monovalent and bivalent constructs.

T1 sequence (Q01973 30-406 limits assumed): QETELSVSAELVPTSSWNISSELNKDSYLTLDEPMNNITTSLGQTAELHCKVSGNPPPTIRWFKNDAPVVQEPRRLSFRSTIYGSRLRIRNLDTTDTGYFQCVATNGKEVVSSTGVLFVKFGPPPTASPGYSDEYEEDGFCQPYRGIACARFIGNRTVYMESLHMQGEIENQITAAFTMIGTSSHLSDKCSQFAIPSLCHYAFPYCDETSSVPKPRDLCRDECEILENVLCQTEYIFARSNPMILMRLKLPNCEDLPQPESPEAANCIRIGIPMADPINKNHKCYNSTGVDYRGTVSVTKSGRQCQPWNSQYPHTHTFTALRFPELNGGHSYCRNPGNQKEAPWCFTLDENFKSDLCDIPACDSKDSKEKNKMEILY

Binder	Kd [nM]
B1	0.086
B2	0.048
B3	0.057
B4	0.2
B5	0.068
B6	0.366

Target: human ROR1 on cells (human, UniProt Q01973 30-937)
Assay: cell-based or functional assay

human ROR1 on cells, sequence (Q01973 30-937 limits assumed): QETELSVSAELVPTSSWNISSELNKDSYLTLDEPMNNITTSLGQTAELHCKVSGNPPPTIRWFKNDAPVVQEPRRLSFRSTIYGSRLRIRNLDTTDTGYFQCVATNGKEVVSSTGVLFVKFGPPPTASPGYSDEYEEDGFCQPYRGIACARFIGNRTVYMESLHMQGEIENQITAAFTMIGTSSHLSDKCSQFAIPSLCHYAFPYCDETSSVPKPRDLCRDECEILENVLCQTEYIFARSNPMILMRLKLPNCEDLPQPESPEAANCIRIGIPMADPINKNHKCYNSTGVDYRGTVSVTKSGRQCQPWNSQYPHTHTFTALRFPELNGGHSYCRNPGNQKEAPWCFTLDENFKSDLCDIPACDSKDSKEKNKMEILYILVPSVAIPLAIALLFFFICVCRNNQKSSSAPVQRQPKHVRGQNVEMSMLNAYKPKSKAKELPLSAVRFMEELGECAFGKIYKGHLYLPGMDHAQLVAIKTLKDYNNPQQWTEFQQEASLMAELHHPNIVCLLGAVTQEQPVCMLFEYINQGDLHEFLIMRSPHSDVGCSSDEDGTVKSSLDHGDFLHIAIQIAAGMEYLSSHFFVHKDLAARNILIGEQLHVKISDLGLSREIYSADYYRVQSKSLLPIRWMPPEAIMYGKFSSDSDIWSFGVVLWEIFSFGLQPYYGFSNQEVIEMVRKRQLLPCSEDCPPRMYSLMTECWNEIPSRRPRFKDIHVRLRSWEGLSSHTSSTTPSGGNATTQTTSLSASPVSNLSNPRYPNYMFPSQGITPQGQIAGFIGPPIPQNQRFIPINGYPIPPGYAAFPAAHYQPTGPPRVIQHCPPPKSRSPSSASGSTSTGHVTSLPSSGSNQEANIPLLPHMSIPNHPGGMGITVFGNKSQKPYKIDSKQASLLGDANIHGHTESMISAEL

Binder	EC50, LDH release, ROR1-transfected MEC	Max. LDH Release, ROR1-transfected MEC [%]
B2	3.5 ng/mL and 17 pM	34
B6	1.8 ng/mL and 9 pM	37

Target: T2, human CD3 on Jurkat cells (human, UniProt P09693 23-182; P04234 22-171; P07766 23-207)
T2 construct: GenBank NP_000064.1, NP_000723.1, NP_000724.1
Assay: flow cytometry on Jurkat cells
Experimental: To quantitate CD3 binding, 2.5E5 Jurkat cells were used for each condition. A 2× stock of the cells was made by resuspending the cells to 5E6/mL by placing in 50 μL of PBS with 2% FBS. Next, the cells were diluted with an equal volume of 2× stock of the test bispecific binding molecule. The cells and antibody were co-incubated on ice for 20 min. The cells were then washed 3 times with 300 μL of FACS buffer and were resuspended in 100 μL of goat anti-human Fc-PE conjugate antibody (Invitrogen cat. #12499882) at 1:500 dilution and incubated on ice with reduced light for 20 min. The cells were then washed 3 times with 300 μL of FACS buffer and fixed with 2% paraformaldehyde for 10 min at 25° C. The cells were washed 2 times with 300 μL of FACS buffer and analyzed on a Miltenyi MACSQuant Analyzer.

T2 sequence (P09693 23-182 limits assumed, chain 1 of 3): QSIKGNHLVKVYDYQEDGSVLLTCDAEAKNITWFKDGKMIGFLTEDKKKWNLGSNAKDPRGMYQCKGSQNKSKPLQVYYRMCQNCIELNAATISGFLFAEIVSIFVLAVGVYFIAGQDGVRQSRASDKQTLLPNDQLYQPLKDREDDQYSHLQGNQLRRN
T2 sequence (P04234 22-171 limits assumed, chain 2 of 3): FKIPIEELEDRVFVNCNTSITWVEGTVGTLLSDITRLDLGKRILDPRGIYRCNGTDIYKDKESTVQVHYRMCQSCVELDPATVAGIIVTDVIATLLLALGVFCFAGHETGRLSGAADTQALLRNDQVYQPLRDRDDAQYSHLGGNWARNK
T2 sequence (P07766 23-207 limits assumed, chain 3 of 3): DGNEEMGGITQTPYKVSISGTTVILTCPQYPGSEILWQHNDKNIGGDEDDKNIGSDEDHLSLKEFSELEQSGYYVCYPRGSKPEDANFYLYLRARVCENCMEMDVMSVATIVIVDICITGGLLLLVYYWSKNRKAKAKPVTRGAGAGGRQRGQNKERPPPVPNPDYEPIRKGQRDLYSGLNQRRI

Binder	binding result
B7	binds
B1	binds
B2	binds
B3	binds
B5	binds

Target: T3, recombinant human ROR1 extracellular domain (human, UniProt Q01973 30-406)
T3 construct: Bought (Acro Biosystems cat. R01-H522Y); whole entry named; also called ROR1-ECD; immobilized ROR1
Assay: ELISA, immobilised ROR1 ECD, construct titrated
Experimental: A 96-well Costar-3366 plate was coated with 50 μL/well of 2 μg/mL […] (Acro Biosystems cat. #R01-H522Y) in PBS overnight at 4° C. The plate was rinsed once with PBS containing 0.05% Tween 20 (PBS-T) and blocked with 100 μL/well of 5% non-fat milk in PBS (5% M-P) for 1 h at 25° C. Antibody samples were serially diluted 2-fold using 5% M-P and were incubated for 1 h at 25° C. (50 μL/well). The plate was washed three times with PBS-T and 50 μL/well anti-human kappa, HRP conjugate (Southern Biotech cat. #2060-05) diluted 10,000-fold in 5% M-P was added for 1 h at 25° C. The plate was washed three times with PBS-T, developed with 50 μL/well 1-Step Ultra TMB-ELISA (Thermo Scientific cat. #34028). The reaction was terminated by the addition of 2 N H₂SO₄ and the A450 was determined using a Spectramax plate reader.
Next, the binding of bispecific binding molecules to ROR was characterized by ELISA using recombinantly-expressed extracellular domain of RORL. ROR was immobilized on a microtiter plate, the bispecific binding molecules were titrated, and binding was quantitated with an anti-human kappa-HRP reagent. Consistent with the cell binding data, all constructs bound ROR1 in a concentration-dependent manner (FIG. 6). Moreover, monovalent ROR1 constructs 13-15 bound less tightly than all but two of the bivalent constructs.

T3 sequence (Q01973 30-406 limits assumed): as the sequence (Q01973 30-406 limits assumed) above

Binder	Kd [nM]
B1	0.116
